Test results: US20250188151A1, “C-JUN ANTAGONIST PEPTIDES” (The University of Bath, priority 2022, published 2025)
Bridge positions count the residues as written; N and C are the ends.

How the values were obtained:
[1] = target: T1, cJun bZIP (human, UniProt P05412 252-308, limits assumed); test: cell-based or functional assay
T1 chain: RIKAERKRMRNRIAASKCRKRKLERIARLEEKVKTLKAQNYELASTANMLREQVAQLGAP

[2] = target: T1, cJun bZIP; test: cell-based or functional assay
[3] = target: T1, cJun bZIP; test: CD thermal denaturation, peptide 5 µM and c-Jun 5 µM
[4] = target: T1, cJun bZIP; test: ITC (PEAQ-ITC), peptide injected into cJun, one site model

B1: HingeW peptide variant 3 (peptide)
peptide: Ac-LEKEAEELVVEEDVLEEEIEQLEERNYALRKEIEDLQKQLEKL-NH2
notes: Synthetic, NΔ17 CΔ3; also called peptide 3
fold decrease in antagonism, 2 to 3 [1]: 2 fold | IC50 CD [2]: 33.7 µM | Tm (° C.) of peptide-c-Jun heterodimer [3]: 67.9 ° C.

Ac-LVVEEDVLEEEIEQLEERNYALRKEIEDLQKQLEKL-NH2 (Synthetic, NΔ24 CΔ3) [Peptide 5]
fold better antagonism than 6 [1]: 1.7 fold | fold decrease in antagonism, 3 to 5 [1]: 2.3 fold | fold lower antagonism than 1 [1]: 5.8 fold | fold reduction in antagonism, 4 to 5 [1]: 1.7 fold | IC50 CD [2]: 78.2 µM | Tm (° C.) of peptide-c-Jun heterodimer [3]: 62.8 ° C.

B2: HingeW peptide variant 24 (HW30) (peptide)
peptide: Ac-EAEELVVEEKVLEDEIEQLEERNYALRKEIKDLQDQ-NH2
modifications: lactam 10-14, 31-35
SMILES: CC[C@H](C)[C@H](NC(=O)[C@H](CCC(=O)O)NC(=O)[C@H](CCCCN)NC(=O)[C@H](CCCNC(=N)N)NC(=O)[C@H](CC(C)C)NC(=O)[C@H](C)NC(=O)[C@H](Cc1ccc(O)cc1)NC(=O)[C@H](CC(N)=O)NC(=O)[C@H](CCCNC(=N)N)NC(=O)[C@H](CCC(=O)O)NC(=O)[C@H](CCC(=O)O)NC(=O)[C@H](CC(C)C)NC(=O)[C@H](CCC(N)=O)NC(=O)[C@H](CCC(=O)O)NC(=O)[C@@H](NC(=O)[C@H](CCC(=O)O)NC(=O)[C@@H]1CC(=O)NCCCC[C@H](NC(=O)[C@H](CCC(=O)O)NC(=O)[C@H](CCC(=O)O)NC(=O)[C@@H](NC(=O)[C@@H](NC(=O)[C@H](CC(C)C)NC(=O)[C@H](CCC(=O)O)NC(=O)[C@H](CCC(=O)O)NC(=O)[C@H](C)NC(=O)[C@H](CCC(=O)O)NC(C)=O)C(C)C)C(C)C)C(=O)N[C@@H](C(C)C)C(=O)N[C@@H](CC(C)C)C(=O)N[C@@H](CCC(=O)O)C(=O)N1)[C@@H](C)CC)C(=O)N[C@H]1CCCCNC(=O)C[C@@H](C(=O)N[C@@H](CCC(N)=O)C(N)=O)NC(=O)[C@H](CCC(N)=O)NC(=O)[C@H](CC(C)C)NC(=O)[C@H](CC(=O)O)NC1=O
notes: Synthetic, NΔ20 CΔ7; also called double lactamised peptide
IC50 CD [2]: 44.9 µM | Tm (° C.) of peptide-c-Jun heterodimer [3]: 63.2 ° C. | -TΔS [4]: 19.6 kcal/mol | Kd [4]: 0.00969 µM | Stoichiometry, n [4]: 1.05 | ΔG [4]: -10.9 kcal/mol | ΔH [4]: -30.5 kcal/mol

B3: HingeW variant peptide 20 (peptide)
peptide: Ac-EAEELVVEEDVLEEEIEQLEEKNKALKDEIEDLQKQY-NH2
notes: Synthetic, NΔ20 CΔ7; also called linear form of 20/21
IC50 CD [2]: 121 µM | Tm (° C.) of peptide-c-Jun heterodimer [3]: 56.2 ° C.

B4: HingeW peptide variant 2 (peptide)
peptide: Ac-LARENEELEKEAEELVVEEDVLEEEIEQLEERNYALRKEIEDLQKQLEKL-NH2
notes: Synthetic, NΔ10 CΔ3; also called peptide 2
fold decrease in antagonism, 1 to 2 [1]: 1.2 fold | fold more effective antagonism than 10 [1]: 4 fold | IC50 CD [2]: 16.6 µM | Tm (° C.) of peptide-c-Jun heterodimer [3]: 68.5 ° C.

B5: HingeW variant peptide 21 (peptide)
peptide: Ac-EAEELVVEEDVLEEEIEQLEEKNKALKDEIEDLQKQY-NH2
modifications: lactam 24-28 (inferred)
notes: Synthetic, NΔ20 CΔ7; also called cyclised form of 20/21
IC50 CD [2]: 94.1 µM | Tm (° C.) of peptide-c-Jun heterodimer [3]: 58.9 ° C.

B6: HingeW variant peptide 28 (peptide)
peptide: Ac-EAEELVVEEDVLEEEIEQLEERNYALRKEIEDLQ-NH2
notes: Synthetic, NΔ20 CΔ9; also called linear form of 28/29
IC50 CD [2]: 725 µM | Tm (° C.) of peptide-c-Jun heterodimer [3]: 53.8 ° C.

Ac-EAEELVVEEDVLEEEIEQLEERNYALRKEIEDLQKQLEKL-NH2 (Synthetic, NΔ20 CΔ3) [HingeW variant peptide 4]
IC50 CD [2]: 45.4 µM | Tm (° C.) of peptide-c-Jun heterodimer [3]: 64.1 ° C. | -TΔS [4]: 35.7 kcal/mol | Kd [4]: 0.0911 µM | Stoichiometry, n [4]: 0.91 | ΔG [4]: -9.68 kcal/mol | ΔH [4]: -45.4 kcal/mol
